Measurements published in patent US20200216495A1 (ADRX, published 2020).
Values joined by “and” are separate entries in the source; they are usually repeats but may differ in a detail not shown here. Equal entries are not always repeated. Square brackets hold non-standard residues; d marks the D form. Ends that are not written are not given here.

Molecular target: Tau40 P301L protein (human)
Test: cell-based or functional assay

Row | Binder | IC50, Tau40 assay (ThT)
1 | [dW][dT][dL][dR][dI][dH][dW] [wtlrihw (PEPTIDE ID NO: 305)] | 2070 nM
2 | [dW][dR][dL][dN][dV][dR][dW] [wrlnvrw (PEPTIDE ID NO: 306)] | 2070 nM
3 | [dF][dE][dL][dR][dL][dH][dW][dH] [felrlhwh (PEPTIDE ID NO: 133)] | 2110 nM and 2410 nM
4 | [dL][dR][dV][dQ][dV][dR][dL] [lrvqvrl (PEPTIDE ID NO: 441)] | 2130 nM
5 | [dY][dH][dL][dK][dL][dH][dY][dW] [yhlklhyw (PEPTIDE ID NO: 440)] | 2170 nM
6 | [dW][dL][dR][dV][dQ][dV][dK][dW] [wlrvqvkw (PEPTIDE ID NO: 111)] | 2180 nM and 2210 nM
7 | [dL][dA][dI][dR][dI][dH][dY][dH] [lairihyh (PEPTIDE ID NO: 309)] | 2190 nM
8 | [dL][dK][dL][dK][dI][dK][dH][dF] [lklkikhf (PEPTIDE ID NO: 154)] | 2210 nM
9 | [dW][dR][dL][dW][dV][dR][dW][dW] [wrlwvrww (PEPTIDE ID NO: 310)] | 2230 nM
10 | [dW][dK][dV][dQ][dV][dR][dL][dW] [wkvqvrlw (PEPTIDE ID NO: 2)] | 2260 nM and 950 nM and 2390 nM and 820 nM
11 | [dT][dW][dR][dL][dK][dV][dR][dW] [twrlkvrw (PEPTIDE ID NO: 205)] | 750 nM
12 | [dR][dI][dR][dW][dY][dW][dK] [rirwywk (PEPTIDE ID NO: 311)] | 2270 nM
13 | [dA][dR][dL][dR][dI][dH][dW] [arlrihw (PEPTIDE ID NO: 312)] | 2280 nM
14 | [dW][dR][dL][dK][dV][dE][dW][dW] [wrlkveww (PEPTIDE ID NO: 313)] | 2300 nM
15 | [dF][dE][dL][dH][dI][dK][dW][dH] [felhikwh (PEPTIDE ID NO: 134)] | 2340 nM
16 | [dW][dR][dL][dR][dI][dT][dW] [wrlritw (PEPTIDE ID NO: 314)] | 2360 nM
17 | [dW][dR][dI][dW][dI][dR][dY][dW] [wriwiryw (PEPTIDE ID NO: 105)] | 2380 nM and 2610 nM
18 | [dW][dR][dL][dE][dV][dR][dW] [wrlevrw (PEPTIDE ID NO: 315)] | 2400 nM
19 | [dL][dK][dI][dR][dI][dW][dY][dH] [lkiriwyh (PEPTIDE ID NO: 206)] | 780 nM
20 | [dL][dK][dL][dE][dI][dR][dW][dH] [lkleirwh (PEPTIDE ID NO: 429)] | 2420 nM
21 | [dL][dE][dI][dR][dI][dH][dY] [leirihy (PEPTIDE ID NO: 316)] | 2430 nM
22 | [dL][dK][dI][dM][dI][dH][dY] [lkimihy (PEPTIDE ID NO: 317)] | 2440 nM
23 | [dL][dK][dI][dR][dI][dE][dH][dY] [lkiriehy (PEPTIDE ID NO: 155)] | 2450 nM
24 | [dL][dK][dI][dR][dI][dH][dE][dH] [lkiriheh (PEPTIDE ID NO: 318)] | 2450 nM
